The target in this test is T1, PD-L1-his蛋白 (人PD-L1胞外区, his标签) (human, UniProt Q9NZQ7 19-238).
T1 construct: extracellular domain; also called PD-L1蛋白; PD-L1-his蛋白标准品; not shown: his tag
Nature of the test: sandwich ELISA, PD-L1 antibody as capture, biotinylated antibody X as detection, HRP-Streptavidin. In general terms: ELISA stands for enzyme-linked immunosorbent assay.

T1 sequence (Q9NZQ7 19-238): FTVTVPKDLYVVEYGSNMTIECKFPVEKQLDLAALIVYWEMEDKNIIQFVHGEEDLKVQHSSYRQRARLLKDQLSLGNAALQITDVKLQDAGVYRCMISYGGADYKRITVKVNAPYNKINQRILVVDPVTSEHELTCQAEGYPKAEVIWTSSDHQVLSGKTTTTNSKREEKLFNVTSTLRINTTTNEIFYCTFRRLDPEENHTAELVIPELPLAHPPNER

B1: 抗体X (非封阻型抗PD-L1抗体) (antibody, V domains shown)
VH: QVQLQQSGTELMKPGASVKISCKATGYTFSNYWIEWVKQRPGHGLEWIGEILPGSGNTNYNENFKGKATFTADTSSNTAYMQLSRLTSEDSAVYYCARERASTSWGQGTLVTVSA
VL: DIQMTQTTSSLSASLGDRVTITCSASQGISNYLNWYQQNPDGTVKLLIYYTSHLHSGVSSRFSGSGSGTDYSLTISNLEPEDIATYYCQQYVKLPWTFGGGTKLEIK
notes: Used biotin-labelled as the detection antibody; also called PD-L1抗体X; 第二抗体
Regarding B1, the binding result is “binds”.

For the origin of these results see patent CN108997499A (BEIJING CHEST HOSPITAL CAPITAL MEDICAL UNIV; BEIJING …, dated 2018).
